Data reported in patent US9987329B2, “Methods for treating peripheral nerve damage” (Cornell University, priority 2014, dated 2018).

Experiments:
cornea = details: mouse, in vivo
Method: (§1) Wild type C57BL/6 and Vegf-b^−/− mice were subject to corneal epithelial debridement as described above or left intact. A 5 ul volume containing 0.5 ng VEGF-B^186 in PBS was injected subconjunctivally, at the lateral temporal bulbar conjunctiva, using a 10-μl micro-syringe (Hamilton Co). Equal volume of 0.1% bovine serum albumin (BSA) was used in control mice. The recovery of the corneal epithelial injury was imaged at 24, 40 and 48 hours by applying 1% fluorescein solution to the corneal surface and wounds photographed under diffuse cobalt blue light attached to a slit lamp bio-microscope (Nikon FS-3, Nikon) connected to a digital camera (Canon EOS 60D). The corneal epithelial defect areas were quantified by analyzing the images with Photoshop CS4 (Adobe). Corneas were harvested after one week for immunodetection of nerves. Possible growth of blood vessel into the cornea was monitored by slit lamp examination.

[1] = tested on: corneal sensation of C57BL/6 and Vegf-b−/− mice; assay: Corneal nerve sensation testing (von Frey Hairs); assay type: in vivo, mouse
Method: The degree of recovered nerve sensation in the injured cornea was evaluated using calibrated von Frey Hairs (North Coast Medicals). In this method the center of the cornea of un-anesthetized mouse was touched with thin filaments of ascending stiffness (0.008 to 1.4 g) until the hairs buckled and a blink response was elicited. C57BL/6 wild type and Vegf-b^−/− mice subjected to corneal epithelial debridement and receiving subconjuntival injection of VEGF-B, as well as their respective controls, were evaluated to determine the minimal force (g) needed for a blink response. Eight mice were tested in each group in three individual experiments.

[2] = tested on: trigeminal ganglion (TG) neuronal cells; assay: Trigeminal ganglion neuronal growth assay; assay type: cell-based, mouse; details: VEGF-B on three consecutive days, culture day 6 (FIG. 11)
[3] = tested on: corneal epithelium of C57BL/6 and Vegf-b−/− mice; assay: Corneal epithelial wound healing after debridement (fluorescein staining); assay type: in vivo, mouse; details: 0.5 ng subconjunctival, 48 hours (FIG. 6A)
Method: as §1

B1: recombinant mouse VEGF-B^186 (protein, listed as Homo sapiens)
chain: MSPLLRRLLLAALLQLAPAQAPVSQPDAPGHQRKVVSWIDVYTRATCQPREVVVPLTVELMGTVAKQLVPSCVTVQRCGGCCPDDGLECVPTGQHQVRMQILMIRYPSSQLGEMSLEEHSQCECRPKKKDSAVKPDRAATPHHRPQPRSVPGWDSAPGAPSPADITHPTPAPGPSAHAAPSTTSALTPGPAAAAADAAASSVAKGGA
notes: vascular endothelial growth factor B; recombinant mouse VEGF-B186 (R&D 767-VE-010)
neovascularization of the cornea (cornea): did not produce any unwanted neovascularization
corneal sensation compared with untreated Vegf-b−/− mice ([1]; Vegf-b−/− mice, 2 weeks post-injury (FIG. 4F)): significantly improved sensation
functional recovery of corneal sensation ([1]; wild type and Vegf-b−/− mice, 7 days of treatment (FIG. 4E)): began to improve
corneal sensation ([1]; wild-type mice, 2 weeks post-injury (FIG. 4F)): completely restored
dendrite length and branching [2]: longer dendrites and more branches
injured epithelial area compared with untreated controls ([3]; Vegf-b−/− mice): only half the injured area
epithelial healing ([3]; wild type mice): almost complete healing
